We go through two substances from article PMC6628147.

By Kd is commonly meant the constant that tells how readily two partners part at equilibrium. The low end stands for a tighter complex, the high end for a looser complex.

Where “and” joins values, the source holds several entries; their conditions need not be identical. Identical values can stand only once.

What all share (assay): EMSA
What all share (details): EMSA: 1 nM 6-FAM DNA, 0-1.28 uM protein, 1 h at 37 C, binding buffer not stated; 6% PAGE in 40 mM Tris pH 7.6, 20 mM acetic acid, 1 mM EDTA at 4 C (effectors …)
Background: Mobility shift assays separate free from complexed probe on a gel.

Data set [1] has as its system BenM-DBDCatM-His (Acinetobacter baylyi ADP1).
The subject of data set [2] is CatM-His (Acinetobacter baylyi ADP1).
Data set [3] deals with BenM-DBDCatM(F293Y,H160R)-His (Acinetobacter baylyi ADP1).
Data set [4] concerns CatM(I18F,K38N)-His (Acinetobacter baylyi ADP1).

On to PcatB operator-promoter, for which the Kd in data set [1] was 1 nM and 3 nM (2×) and 4 nM; in data set [2] it was 11 nM and 19 nM (2×) and 10 nM; in data set [3], 3 nM.

Regarding PbenA operator-promoter, the Kd in data set [4] is 42 nM and 32 nM (2×) and 34 nM; in data set [2] it was 70 nM and 71 nM (2×) and 67 nM; in data set [3], 1 nM and 4 nM (2×) and 2 nM.
